Reference: article PMC4334965, “Molecular Bases of Catalysis and ADP-Ribose Preference of Human Mn^2+-Dependent ADP-Ribose/CDP-Alcohol Diphosphatase and Conversion by Mutagenesis to a Preferential Cyclic ADP-Ribose Phosphohydrolase” (PLoS ONE, 2015)
Changes are numbered by the printed parent chain. Numbers in names are those of the source.

B1: human ADPRibase-Mn (Homo sapiens; H111A) (protein)
chain: MDDKPNPEALSDSSERLFSFGVIADVQFADLEDGFNFQGTRRRYYRHSLLHLQGAIEDWNNESSMPCCVLQLGDIIDGYNAQYNASKKSLELVMDMFKRLKVPVHHTWGNAEFYNFSREYLTHSKLNTKFLEDQIVHHPETMPSEDYYAYHFVPFPKFRFILLDAYDLSVLGVDQSSPKYEQCMKILREHNPNTELNSPQGLSEPQFVQFNGGFSQEQLNWLNEVLTFSDTNQEKVVIVSHLPIYPDASDNVCLAWNYRDALAVIWSHECVVCFFAGHTHDGGYSEDPFGVYHVNLEGVIETAPDSQAFGTVHVYPDKMMLKGRGRVPDRIMNYKKERAFHC
notes: full length, 342 aa; expressed as GST fusion (pGEX-6P-3), GST cut off with PreScission protease, 11-aa N-terminal extension …
B2: human ADPRibase-Mn (Homo sapiens; C253A) (protein)
chain: B1 chain with A111H, C253A
notes: as for B1
B3: human ADPRibase-Mn (Homo sapiens; C253A/F37A/L196F) (protein)
chain: B1 chain with F37A, A111H, L196F, C253A
notes: as for B1
B4: human ADPRibase-Mn (Homo sapiens; Q27H) (protein)
chain: B1 chain with Q27H, A111H
notes: as for B1
B5: human ADPRibase-Mn (Homo sapiens; F210A) (protein)
chain: B1 chain with A111H, F210A
notes: as for B1
B6: human ADPRibase-Mn (Homo sapiens) (protein)
chain: B1 chain with A111H
notes: as for B1

How the values were obtained:
Type in all cases: biochemical, Homo sapiens
Details in all cases: 5 mM MnCl2, pH 7.5, 37°C
[1] = substrate: C[N+](C)(C)CCOP(=O)(O)OP(=O)([O-])OC[C@H]1O[C@@H](n2ccc(N)nc2=O)[C@H](O)[C@@H]1O; experiment: colorimetric Pi assay coupled to alkaline phosphatase, saturation kinetics
Text: (§1) colorimetric Pi assay coupled to alkaline phosphatase, saturation kinetics on human ADPRibase-Mn

[2] = substrate: N=c1c2ncn3c2ncn1[C@@H]1O[C@H](COP(=O)(O)OP(=O)(O)OC[C@H]2O[C@@H]3[C@H](O)[C@@H]2O)[C@@H](O)[C@H]1O; experiment: HPLC of N1-(5-phosphoribosyl)-AMP formed, saturation kinetics
Text: HPLC of N1-(5-phosphoribosyl)-AMP formed, saturation kinetics on human ADPRibase-Mn

[3] = substrate: Nc1ncnc2c1ncn2[C@@H]1O[C@H](CO)[C@H]2OP(=O)(O)O[C@H]21; experiment: colorimetric Pi assay coupled to alkaline phosphatase, saturation kinetics
Text: as §1

Protein	Km [1]	kcat [1]	kcat/Km [1]	Km [2]	kcat [2]	kcat/Km [2]	Km [3]	kcat [3]	kcat/Km [3]
B1	7500 ± 700 µM	2.2 ± 0.2 s⁻¹	300 ± 30 M⁻¹ s⁻¹	–	–	–	–	–	–
B2	–	–	–	200 ± 40 µM	8.9 ± 0.8 s⁻¹	44000 ± 9000 M⁻¹ s⁻¹	–	–	–
B3	–	–	–	460 ± 120 µM	16 ± 3 s⁻¹	35500 ± 4300 M⁻¹ s⁻¹	–	–	–
B4	2700 ± 200 µM	39 ± 12 s⁻¹	14000 ± 3000 M⁻¹ s⁻¹	–	–	–	–	–	–
B5	11000 ± 2600 µM	50 ± 12 s⁻¹	4000 ± 100 M⁻¹ s⁻¹	–	–	–	–	–	–
B6	350 ± 60 µM	50 ± 4 s⁻¹	150000 ± 30000 M⁻¹ s⁻¹	780 ± 200 µM	3.2 ± 0.2 s⁻¹	4000 ± 1000 M⁻¹ s⁻¹	2400 ± 300 µM	60 ± 13 s⁻¹	25000 ± 6000 M⁻¹ s⁻¹
